The text below walks through data of patent publication US20260167721A1 (ABLEXIS, published 2026).

Changes are numbered by the printed parent chain.

The Kd is the equilibrium constant for the complex coming apart. By koff is commonly meant a measure of how fast the partners let go of each other. Broadly, the kon is a measure of how fast the partners come together.

B1: ABL-CD3-64 (antibody, V domains shown)
VH: EVQVAESGGGLVKPGGSLRLSCAASGFTFSRYSMNWVRQAPGKGLEWVSSISSSGSYTYYADSVKGRFTISRDNAKNSLYLQMNSLRAEDTAVYYCVRERGKGAGMDVWGQGTTVTVSS
VL: NFMLTQPHSVSESPGKTVTISCTRSSGSIASNYVQWYQQRPGSSPTTVIYEDNQRPSGVPDRFSGSIDSSSNSASLTISGLKTEDEADYYCQSYDSSNRVFGGGTKLTVL
notes: mAb purified from hybridoma; chimeric AlivaMab IgG (human VH, CH1 and upper hinge; mouse middle hinge, CH2, CH3; human light chain)
B2: ABL-CD3-66 (antibody, V domains shown)
VH: QVQLQESGPGLVKPSETLSLTCTVSGGSISSYYWSWIRQPAGKGLEWIGRIYASGSTYYNPSLKSRVTMSVDTSKNQFSLKLSSVTAADTAVYYCAREKRSRLYFDYWGQGTLVTVSS
VL: B1 VL with A87G, S96R
notes: as for B1
B3: ABL-CD3-70 (antibody, V domains shown)
VH: EVQLVESGGGLVKPGGSLRLSCAASGFTFSTYIMNWVRQAPGKGLEWVSSITSSSSYIYYADSVKGRFTISRDNAKNSLYLQMNSLRAEDTAVYYCAREKWELLFFDYWGQGTLVTVSS
VL: B1 VL
notes: as for B1
B4: ABL-CD3-71 (antibody, V domains shown)
VH: B2 VH with S30N, A53T, Y58N, N76K, K99R, R100I, T112I
VL: B1 VL with S96R
notes: as for B1
B5: ABL-CD3-87 (antibody, V domains shown)
VH: B1 VH with V4L, A5V, P14F, G55S, T58K, V97A, R100G, K102N, G103S, A104H
VL: B1 VL
notes: as for B1
B6: ABL-CD3-65 (antibody, V domains shown)
VH: QVQLQQWGAGLLKPSETLSLTCAVYGGSFSGYYWSWIRQPPGKGLEWIGEINHSGSTNYNPSLKSRVTISVDTSKNQFSLKLSSVTAADTAVYYCAREYYYYGMDVWGQGTTVTVSS
VL: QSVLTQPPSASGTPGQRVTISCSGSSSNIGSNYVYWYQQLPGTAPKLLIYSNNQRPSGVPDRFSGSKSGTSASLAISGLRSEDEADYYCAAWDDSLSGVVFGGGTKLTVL
notes: as for B1
B7: CD3 × CD33-BspAb66 (bispecific antibody, human IgG1, kappa)
scFv: EVQLVESGGGLVQPGRSLRLSCAASGFTFDDYAMHWVRQAPGKGLEWVSGISWNSGSIGYADSVKGRFTISRDNAKNSLYLQMNSLRAEDTALYYCAKDSRGYGDYRLGGAYWGQGTLVTVSSGGGGSGGGGSGGGGSGGGGSEIVMTQSPATLSVSPGERATLSCRASQSVSSNLAWYQQKPGQAPRLLIYGASTRATGIPARFSGSGSGTEFTLTISSLQSEDFAVYYCQQYNNWPWTFGQGTKVEIKTSGPGGPDKTHTCPPCPAPEFEGGPSVFLFPPKPKDTLMISRTPEVTCVVVDVSHEDPEVKFNWYVDGVEVHNAKTKPREEQYNSTYRVVSVLTVLHQDWLNGKEYKCKVSNKALPASIEKTISKAKGQPREPQVYTLPPCREEMTKNQVSLWCLVKGFYPSDIAVEWESNGQPENNYKTTPPVLDSDGSFFLYSKLTVDKSRWQQGNVFSCSVMHEALHNHYTQKSLSLSPGK
heavy: EVQLVQSGAEVKKPGSSVKVSCKASGYTITDSNIHWVRQAPGQSLEWIGYIYPYNGGTDYNQKFKNRATLTVDNPTNTAYMELSSLRSEDTAFYYCVNGNPWLAYWGQGTLVTVSSASTKGPSVFPLAPSSKSTSGGTAALGCLVKDYFPEPVTVSWNSGALTSGVHTFPAVLQSSGLYSLSSVVTVPSSSLGTQTYICNVNHKPSNTKVDKRVEPKSCDKTHTCPPCPAPEFEGGPSVFLFPPKPKDTLMISRTPEVTCVVVDVSHEDPEVKFNWYVDGVEVHNAKTKPREEQYNSTYRVVSVLTVLHQDWLNGKEYKCKVSNKALPASIEKTISKAKGQPREPQVCTLPPSREEMTKNQVSLSCAVKGFYPSDIAVEWESNGQPENNYKTTPPVLDSDGSFFLVSKLTVDKSRWQQGNVFSCSVMHEALHNRFTQKSLSLSPGK
light: DIQLTQSPSTLSASVGDRVTITCRASESLDNYGIRFLTWFQQKPGKAPKLLMYAASNQGSGVPSRFSGSGSGTEFTLTISSLQPDDFATYYCQQTKEVPWSFGQGTKVEVKRTVAAPSVFIFPPSDEQLKSGTASVVCLLNNFYPREAKVQWKVDNALQSGNSQESVTEQDSKDSTYSLSSTLTLSKADYEKHKVYACEVTHQGLSSPVTKSFNRGEC
B8: CD3 × CD33-BspAb73 (bispecific antibody)
chain 1: EVQLVESGGGLVKPGGSLRLSCAASGFTFSSYSMNWVRQAPGKCLEWVSSVNSRGSYIYYADSVKGRFTISRDNAKDSLYLQMNSLRADDTAVYYCARDRRELLLDYWGQGTLVTVSSGGGGSGGGGSGGGGSGGGGSSYELTQPPSVSVSPGQTARITCSGDALPKKYAYWYQQKSGQAPVLVIYEDSKRPSGIPERFSGSSSGTMATLTISGAQVEDEADYYCYSTDSSGNHSWVFGCGTKLTVLDKTHTCPPCPAPEFEGGPSVFLFPPKPKDTLMISRTPEVTCVVVDVSHEDPEVKFNWYVDGVEVHNAKTKPREEQYNSTYRVVSVLTVLHQDWLNGKEYKCKVSNKALPASIEKTISKAKGQPREPQVYTLPPCREEMTKNQVSLWCLVKGFYPSDIAVEWESNGQPENNYKTTPPVLDSDGSFFLYSKLTVDKSRWQQGNVFSCSVMHEALHNHYTQKSLSLSPGK
chain 2: B7 heavy
chain 3: B7 light
B9: CD3 × CD33-BspAb72 (bispecific antibody)
chain 1: EVQLVESGGGLVQPGGSLRLSCAASGFTFSSYSMNWVRQAPGKCLEWVSYISSSSSTIYYADSVKGRFTISRDNAKNSLYLQMNSLRDEDTAVYYCARDGPVDYGMDVWGQGTTVTVSSGGGGSGGGGSGGGGSGGGGSSYELTQPPSVSVSPGQTARITCSGDALPKQYTYWYQQKPGQAPVLVIYKDSERPSGIPERFSGSSSGTTVTLTISGVQAEDEADYYCQSADSSGTYRVFGCGTKLTVLDKTHTCPPCPAPEFEGGPSVFLFPPKPKDTLMISRTPEVTCVVVDVSHEDPEVKFNWYVDGVEVHNAKTKPREEQYNSTYRVVSVLTVLHQDWLNGKEYKCKVSNKALPASIEKTISKAKGQPREPQVYTLPPCREEMTKNQVSLWCLVKGFYPSDIAVEWESNGQPENNYKTTPPVLDSDGSFFLYSKLTVDKSRWQQGNVFSCSVMHEALHNHYTQKSLSLSPGK
chain 2: B7 heavy
chain 3: B7 light

T2 sequence (P07766 23-207, chain 1 of 4): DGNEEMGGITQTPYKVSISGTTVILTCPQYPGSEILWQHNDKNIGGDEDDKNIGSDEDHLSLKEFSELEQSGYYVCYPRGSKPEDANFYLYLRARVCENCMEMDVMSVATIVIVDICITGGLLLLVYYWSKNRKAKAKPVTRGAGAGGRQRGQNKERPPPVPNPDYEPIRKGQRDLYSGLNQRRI
T2 sequence (P04234 22-171, chain 2 of 4): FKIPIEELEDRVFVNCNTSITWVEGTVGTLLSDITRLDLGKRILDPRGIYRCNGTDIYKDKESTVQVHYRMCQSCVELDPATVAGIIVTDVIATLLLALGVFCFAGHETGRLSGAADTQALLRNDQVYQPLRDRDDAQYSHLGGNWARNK
T2 sequence (P09693 23-182, chain 3 of 4): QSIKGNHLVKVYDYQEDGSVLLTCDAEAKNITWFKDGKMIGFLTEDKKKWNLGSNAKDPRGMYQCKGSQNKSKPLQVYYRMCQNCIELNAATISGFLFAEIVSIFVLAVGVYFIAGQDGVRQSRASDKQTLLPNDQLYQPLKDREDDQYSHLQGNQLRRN
T2 sequence (P20963 22-164, chain 4 of 4): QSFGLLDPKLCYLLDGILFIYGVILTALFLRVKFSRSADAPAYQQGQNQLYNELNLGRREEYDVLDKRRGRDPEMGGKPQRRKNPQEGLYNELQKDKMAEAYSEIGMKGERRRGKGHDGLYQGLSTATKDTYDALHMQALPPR

One assay deals with T1, recombinant human CD3 epsilon/gamma heterodimer (human, UniProt P07766 23-126; P09693 23-116).
T1 construct: Recombinant heterodimer used as analyte in Octet; also called hCD3 E/G
T1 sequence (P07766 23-126, chain 1 of 2): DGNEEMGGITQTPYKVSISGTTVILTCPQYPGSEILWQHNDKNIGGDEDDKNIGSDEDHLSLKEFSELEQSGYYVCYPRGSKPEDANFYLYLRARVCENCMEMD
T1 sequence (P09693 23-116, chain 2 of 2): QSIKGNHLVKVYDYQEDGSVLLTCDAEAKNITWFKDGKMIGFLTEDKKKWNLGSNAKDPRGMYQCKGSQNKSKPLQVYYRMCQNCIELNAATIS
Put plainly: BLI (Octet), mAb 5 ug/mL on FAB2G sensor, hCD3 E/G 200-50 nM.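 Also: antibodies purified from hybridoma supernatants, measured by Octet binding to recombinant human CD3 protein.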 In general terms: BLI is a label-free optical method that tracks binding on a fibre tip over time.
B1: the Kd was 71.9 nM, the Response came to 0.46, the koff was found to be 0.013 s⁻¹ and the kon stood at 180000 M⁻¹ s⁻¹.
On the same counts, the results for B2 are 92.8 nM, 0.09, 0.0856 s⁻¹ and 923000 M⁻¹ s⁻¹.
On the same counts, the results for B3 are 4.87 nM, 0.11, 0.00339 s⁻¹ and 697000 M⁻¹ s⁻¹.
On the same counts, the results for B4 are 55 nM, 0.11, 0.0329 s⁻¹ and 598000 M⁻¹ s⁻¹.
On to B5, for which the Kd amounted to 131 nM, the Response is 0.36, the koff came out at 0.0279 s⁻¹ and the kon was found to be 214000 M⁻¹ s⁻¹.
Turning to B6, the dissociation constant (Kd) stood at 18.7 nM, the Response stood at 0.01, the off-rate (koff) was determined as 0.00174 s⁻¹ and the kon was 93200 M⁻¹ s⁻¹.

The next assay addresses T2, human CD3 (on human Pan-T cells or donor PBMC) (human, UniProt P07766 23-207; P04234 22-171; P09693 23-182; P20963 22-164). Put plainly: cell-based or functional assay.
Regarding B7, the “RTCC Assay, Donor 0, EC50” value came out at 2.92 nM; the “RTCC Assay, Donor 0, gMFI max” value stood at 29700 gMFI; the “RTCC Assay, Donor 1, EC50” value was found to be 0.937 nM; the “RTCC Assay, Donor 1, gMFI max” value came out at 65800 gMFI. Further, the “RTCC Assay, Donor 2, EC50” value was 1.85 nM; the “RTCC Assay, Donor 2, gMFI max” value amounted to 53900 gMFI; the “RTCC Assay, Donor 3, EC50” value worked out at 2.33 nM; the “RTCC Assay, Donor 3, gMFI max” value stood at 75900 gMFI.
As to B8, the “RTCC Assay, Donor 0, EC50” value is 0.086 nM; the “RTCC Assay, Donor 0, gMFI max” value stood at 15600 gMFI; the “RTCC Assay, Donor 1, EC50” value turned out to be 0.035 nM; the “RTCC Assay, Donor 1, gMFI max” value worked out at 79900 gMFI. In addition, the “RTCC Assay, Donor 2, EC50” value stood at 0.089 nM; the “RTCC Assay, Donor 2, gMFI max” value worked out at 56100 gMFI; the “RTCC Assay, Donor 3, EC50” value amounted to 0.159 nM; the “RTCC Assay, Donor 3, gMFI max” value stood at 74000 gMFI.
As to B9, the “RTCC Assay, Donor 0, EC50” value turned out to be 5.36 nM; the “RTCC Assay, Donor 0, gMFI max” value worked out at 21000 gMFI; the “RTCC Assay, Donor 1, EC50” value came out at 0.819 nM; the “RTCC Assay, Donor 1, gMFI max” value amounted to 78100 gMFI. In addition, the “RTCC Assay, Donor 2, EC50” value is 2.43 nM; the “RTCC Assay, Donor 2, gMFI max” value came out at 54100 gMFI; the “RTCC Assay, Donor 3, EC50” value is 4.9 nM; the “RTCC Assay, Donor 3, gMFI max” value was found to be 66200 gMFI.

For the next assay, the target named is T3, recombinant human CD3 epsilon/delta heterodimer (human, UniProt P07766 23-126; P04234 22-105).
T3 construct: Recombinant heterodimer used as analyte in Octet; also called hCD3 E/D; human CD3E/D
T3 sequence (P07766 23-126, stated change not applied, chain 1 of 2): as the sequence (P07766 23-126, chain 1 of 2) above
T3 sequence (P04234 22-105, stated change not applied, chain 2 of 2): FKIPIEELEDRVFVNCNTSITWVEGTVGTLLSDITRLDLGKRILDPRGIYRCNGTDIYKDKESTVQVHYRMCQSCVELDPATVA
Description: BLI (Octet), mAb 5 ug/mL on FAB2G sensor, hCD3 E/D 200-50 nM.
With B1, the Kd is 31.6 nM, the Response was 0.68, the koff came out at 0.0054 s⁻¹ and the kon was determined as 171000 M⁻¹ s⁻¹.
On the same counts, the results for B2 are 78.2 nM, 0.41, 0.0266 s⁻¹ and 341000 M⁻¹ s⁻¹.
B3: the Kd was found to be 47.1 nM, the Response is 0.26, the koff was 0.0101 s⁻¹ and the kon was 214000 M⁻¹ s⁻¹.
On the same counts, the results for B4 are 58.8 nM, 0.48, 0.0102 s⁻¹ and 173000 M⁻¹ s⁻¹.
On the same counts, the results for B5 are 69 nM, 0.0358, 0.0166 s⁻¹ and 240000 M⁻¹ s⁻¹.
On the same counts, the results for B6 are 22.7 nM, 0.01, 0.00643 s⁻¹ and 283000 M⁻¹ s⁻¹.

The next assay addresses T2, human CD3 (on human Pan-T cells or …). Description: cell-based or functional assay. This is another data set of the same source.
In the case of B7, the “Cytokine Release Assay (IFNγ), Donor 0, EC50” value stood at 12.9 nM; the “Cytokine Release Assay (IFNγ), Donor 0, gMFI max” value worked out at 1.25e+06 gMFI; the “Cytokine Release Assay (IFNγ), Donor 1, gMFI max” value was 7650 gMFI; the “Cytokine Release Assay (IFNγ), Donor 2, EC50” value was determined as 22.9 nM. The “Cytokine Release Assay (IFNγ), Donor 2, gMFI max” value was determined as 28300 gMFI; the “Cytokine Release Assay (IFNγ), Donor 3, EC50” value stood at 52.6 nM; the “Cytokine Release Assay (IFNγ), Donor 3, gMFI max” value came to 379000 gMFI.
On to B8, for which the “Cytokine Release Assay (IFNγ), Donor 0, gMFI max” value came out at 308000 gMFI; the “Cytokine Release Assay (IFNγ), Donor 1, gMFI max” value is 4350 gMFI; the “Cytokine Release Assay (IFNγ), Donor 2, EC50” value was 8.61 nM; the “Cytokine Release Assay (IFNγ), Donor 2, gMFI max” value was found to be 26900 gMFI. In addition, the “Cytokine Release Assay (IFNγ), Donor 3, EC50” value is 4.64 nM and the “Cytokine Release Assay (IFNγ), Donor 3, gMFI max” value came to 198000 gMFI.
With B9, the “Cytokine Release Assay (IFNγ), Donor 0, gMFI max” value stood at 465000 gMFI; the “Cytokine Release Assay (IFNγ), Donor 1, gMFI max” value turned out to be 4820 gMFI; the “Cytokine Release Assay (IFNγ), Donor 2, EC50” value amounted to 49.1 nM; the “Cytokine Release Assay (IFNγ), Donor 2, gMFI max” value stood at 12200 gMFI. For the same molecule, the “Cytokine Release Assay (IFNγ), Donor 3, gMFI max” value turned out to be 82800 gMFI.
